We go through three substances from article PMC10998906.

Usually stoichiometry N stands for the number of molecules, sites or subunits per partner or assembly.

Common to all, as to assay: negative-stain EM
Assay [1] has as its target H2/1 GCN4 (SG57 head, PR8 stalk, GCN4-trimerized) (influenza A virus A/Puerto Rico/8/34/Mount Sinai(H1N1) | influenza A virus A/Singapore/1/1957(H2N2)).
Assay [2] addresses H5 GCN4 (IN05 HA, GCN4-trimerized) (influenza A virus A/Indonesia/5/2005(H5N1)).
Assay [3] concerns the target H5/1 GCN4 (IN05 head, PR8 stalk, GCN4-trimerized) (influenza A virus A/Puerto Rico/8/34/Mount Sinai(H1N1) | influenza A virus A/Indonesia/5/2005(H5N1)).

As to “H2/1 GCN4 (SG57 head, PR8 stalk, GCN4-trimerized) (domain or fragment)”, the stoichiometry N in assay [1] stood at 3. As for “H5 GCN4 (IN05 HA, GCN4-trimerized) (domain or fragment)”, the stoichiometry N in assay [2] worked out at 3. For “H5/1 GCN4 (IN05 head, PR8 stalk, GCN4-trimerized) (domain or fragment)”, the stoichiometry N in assay [3] was found to be 3.
